Measured values as given in patent US20250152742A1, “COMPOSITIONS AND METHODS FOR NEUROLOGICAL DISEASES” (Trames Bio, Inc., priority 2022, published 2025).

Tested on: engineered chimeric receptor SEQ ID NO: 33 and its mutants (human α7-nAChR ligand binding domain / human GlyRα1 ion pore domain) in Lenti-X 293T cells
Test: YFP fluorescence quenching anion reporter plate reader assay (percent quench, EC50)
Assay type: cell-based
Conditions: for YFP fluorescence quenching using CNL001 (percent quench): receptor named in row; for YFP fluorescence quenching using Facinicline, 30 nM fac: ligand Facinicline 30 nM; for YFP fluorescence quenching using Facinicline, 300 nM fac: ligand Facinicline 300 nM; for YFP fluorescence quenching using Facinicline, 30 uM fac: ligand Facinicline 30 uM; for YFP fluorescence quenching using TC-6987, 1 uM tc6987: ligand TC-6987 1 uM; for YFP fluorescence quenching using TC-6987, 10 uM tc6987: ligand TC-6987 10 uM; for YFP fluorescence quenching using TC-6987, 500 uM tc6987: ligand TC-6987 500 uM; for YFP fluorescence quenching using Varenicline, 3 nM var: ligand Varenicline 3 nM; for YFP fluorescence quenching using Varenicline, 30 nM var: ligand Varenicline 30 nM; for YFP fluorescence quenching using Varenicline, 300 nM var: ligand Varenicline 300 nM; for YFP fluorescence quenching using Varenicline, 500 nM var: ligand Varenicline 500 nM; for YFP fluorescence quenching using Varenicline, 1 uM var: ligand Varenicline 1 uM
Method in brief: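 Percent quench compares mean YFP signal over the final 10 s with the 15 s baseline before ligand, added in iodide-containing extracellular solution (pH 7.2). Cells were LX293T carrying a YFP anion reporter, transiently transfected with the channel construct; plates were preincubated 30 min at 37 °C.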

[1] = 1 nM CNL001, first column so headed
[2] = 1 nM CNL001, second column so headed
[3] = 3 nM brd (TC-5619/Bradanicline)
[4] = 10 nM CNL001, first column so headed
[5] = 10 nM CNL001, second column so headed
[6] = 30 nM brd (TC-5619/Bradanicline)
[7] = 50 nM CNL001, first column so headed
[8] = 50 nM CNL001, second column so headed
[9] = 100 nM CNL001, first column so headed
[10] = 100 nM CNL001, second column so headed
[11] = 300 nM brd (TC-5619/Bradanicline)
[12] = 1 uM CNL001, first column so headed
[13] = 1 uM CNL001, second column so headed

B1: CODA807: engineered receptor: Y115D, L131E in SEQ ID NO: 33 (protein)
chain: MRCSPGGVWLALAASLLHVSLQGEFQRKLYKELVKNYNPLERPVANDSQPLTVYFSLSLLQIMDVDEKNQVLTTNIWLQMSWTDHYLQWNVSEYPGVKTVRFPDGQIWKPDILLDNSADERFDATFHTNVEVNSSGHCQYLPPGIFKSSCPMDLKNFPMDVQTCKLKFGSWSYGGWSLDLQMQEADISGYIPNGEWDLVGIPGKRSERFYECCKEPYPDVTFTVTMRRRMGYYLIQMYIPSLLIVILSWISFWINMDAAPARVGLGITTVLTMTTQSSGSRASLPKVSYVKAIDIWMAVCLLFVFSALLEYAAVNFVSRQHKELLRFRRKRRHHKSPMLNLFQEDEAGEGRFNFSAYGMGPACLQAKDGISVKGANNSNTTNPPPAPSKSPEEMRKLFIQRAKKIDKISRIGFPMAFLIFNMFYWIIYKIVRREDVHNQ
modifications: synthetic sequence of chimeric LGIC
- YFP fluorescence quenching using CNL001 (percent quench) [1]: 0.885%
- YFP fluorescence quenching using CNL001 (percent quench) [2]: −1.707%
- YFP fluorescence quenching using TC-5619/Bradanicline (percent quench) (1 nM brd (TC-5619/Bradanicline)): −1.52%
- YFP fluorescence quenching using TC-5619/Bradanicline (percent quench) [3]: −5.35%
- YFP fluorescence quenching using CNL001 (percent quench) [4]: −0.567%
- YFP fluorescence quenching using CNL001 (percent quench) [5]: 0.043%
- YFP fluorescence quenching using TC-5619/Bradanicline (percent quench) (10 nM brd (TC-5619/Bradanicline)): −3.49%
- YFP fluorescence quenching using TC-6683 (percent quench) (30 nM TC-6683): −26.801%
- YFP fluorescence quenching using TC-5619/Bradanicline (percent quench) [6]: −2.16%
- YFP fluorescence quenching using CNL001 (percent quench) [7]: 5.141%
- YFP fluorescence quenching using CNL001 (percent quench) [8]: 9.409%
- YFP fluorescence quenching using ABT-126 (percent quench) (50 nM abt (ABT-126)): −1.68%
- YFP fluorescence quenching using CNL001 (percent quench) [9]: 9.796%
- YFP fluorescence quenching using CNL001 (percent quench) [10]: 11.009%
- YFP fluorescence quenching (percent quench) (100 nM CNL002): −5.71%
- YFP fluorescence quenching using ABT-126 (percent quench) (100 nM abt (ABT-126)): −2.25%
- YFP fluorescence quenching using AZD-0328 (percent quench) (100 nM azd0328): 24.49%
- YFP fluorescence quenching using TC-5619/Bradanicline (percent quench) (100 nM brd (TC-5619/Bradanicline)): 4.18%
- YFP fluorescence quenching using TC-6683 (percent quench) (300 nM TC-6683): −25.363%
- YFP fluorescence quenching using ABT-126 (percent quench) (300 nM abt (ABT-126)): −2.37%
- YFP fluorescence quenching using AZD-0328 (percent quench) (300 nM azd0328): 45.34%
- YFP fluorescence quenching using TC-5619/Bradanicline (percent quench) [11]: 70.2%
- YFP fluorescence quenching using CNL001 (percent quench) [12]: 27.914%
- YFP fluorescence quenching using CNL001 (percent quench) [13]: 29.109%
- YFP fluorescence quenching (percent quench) (1 uM CNL002): 13.03%
- YFP fluorescence quenching using ABT-126 (percent quench) (1 uM abt (ABT-126)): 3.68%
- YFP fluorescence quenching using TC-5619/Bradanicline (percent quench) (1 uM brd (TC-5619/Bradanicline)): 43.11%
- YFP fluorescence quenching using TC-6683 (percent quench) (3 uM TC-6683): −23.651%
- YFP fluorescence quenching (percent quench) (10 uM ach (acetylcholine)): 15.45%
- YFP fluorescence quenching (percent quench) (30 uM CNL002): 25.2%
- YFP fluorescence quenching using TC-6683 (percent quench) (30 uM TC-6683): −26.235%
- YFP fluorescence quenching using AZD-0328 (percent quench) (30 uM azd0328): 71.21%
- YFP fluorescence quenching using TC-6683 (percent quench) (100 uM TC-6683): −24.182%
- YFP fluorescence quenching (percent quench) (100 uM ach (acetylcholine)): 13.77%
- YFP fluorescence quenching (percent quench) (1 mM ach (acetylcholine)): 27.42%
- YFP fluorescence quenching (percent quench) (3 mM ach (acetylcholine)): 53.62%
- YFP fluorescence quenching using Facinicline, 30 nM fac: 45.76
- YFP fluorescence quenching using Facinicline, 100 nM fac (ligand Facinicline 100 nM): 63.92
- YFP fluorescence quenching using Facinicline, 300 nM fac: 79.43
- YFP fluorescence quenching using Facinicline, 10 uM fac (ligand Facinicline 10 uM): 80.1
- YFP fluorescence quenching using Facinicline, 30 uM fac: 84.91
- YFP fluorescence quenching using TC-6987, 1 uM tc6987: 36.07
- YFP fluorescence quenching using TC-6987, 10 uM tc6987: 31.35
- YFP fluorescence quenching using TC-6987, 500 uM tc6987: 28.18

B2: CODA952: engineered receptor: Y140I in SEQ ID NO: 33 (protein)
chain: MRCSPGGVWLALAASLLHVSLQGEFQRKLYKELVKNYNPLERPVANDSQPLTVYFSLSLLQIMDVDEKNQVLTTNIWLQMSWTDHYLQWNVSEYPGVKTVRFPDGQIWKPDILLYNSADERFDATFHTNVLVNSSGHCQILPPGIFKSSCPMDLKNFPMDVQTCKLKFGSWSYGGWSLDLQMQEADISGYIPNGEWDLVGIPGKRSERFYECCKEPYPDVTFTVTMRRRMGYYLIQMYIPSLLIVILSWISFWINMDAAPARVGLGITTVLTMTTQSSGSRASLPKVSYVKAIDIWMAVCLLFVFSALLEYAAVNFVSRQHKELLRFRRKRRHHKSPMLNLFQEDEAGEGRFNFSAYGMGPACLQAKDGISVKGANNSNTTNPPPAPSKSPEEMRKLFIQRAKKIDKISRIGFPMAFLIFNMFYWIIYKIVRREDVHNQ
modifications: synthetic sequence of chimeric LGIC
- YFP fluorescence quenching using CNL001 (percent quench) [1]: 0.368%
- YFP fluorescence quenching using CNL001 (percent quench) [2]: −1.976%
- YFP fluorescence quenching using TC-5619/Bradanicline (percent quench) [3]: −2.45%
- YFP fluorescence quenching using CNL001 (percent quench) [4]: −3.923%
- YFP fluorescence quenching using CNL001 (percent quench) [5]: 4.348%
- YFP fluorescence quenching using TC-6683 (percent quench) (30 nM TC-6683): −27.7%
- YFP fluorescence quenching using TC-5619/Bradanicline (percent quench) [6]: 66.97%
- YFP fluorescence quenching using CNL001 (percent quench) [7]: 74.107%
- YFP fluorescence quenching using CNL001 (percent quench) [8]: 75.866%
- YFP fluorescence quenching using ABT-126 (percent quench) (50 nM abt (ABT-126)): −12.34%
- YFP fluorescence quenching using CNL001 (percent quench) [9]: 80.323%
- YFP fluorescence quenching using CNL001 (percent quench) [10]: 81.996%
- YFP fluorescence quenching (percent quench) (100 nM CNL002): 32.58%
- YFP fluorescence quenching using ABT-126 (percent quench) (100 nM abt (ABT-126)): −11.57%
- YFP fluorescence quenching using AZD-0328 (percent quench) (100 nM azd0328): −12.96%
- YFP fluorescence quenching using TC-6683 (percent quench) (300 nM TC-6683): −26.87%
- YFP fluorescence quenching using ABT-126 (percent quench) (300 nM abt (ABT-126)): −5.21%
- YFP fluorescence quenching using AZD-0328 (percent quench) (300 nM azd0328): −13.21%
- YFP fluorescence quenching using TC-5619/Bradanicline (percent quench) [11]: 78.48%
- YFP fluorescence quenching using CNL001 (percent quench) [12]: 83.489%
- YFP fluorescence quenching using CNL001 (percent quench) [13]: 82.208%
- YFP fluorescence quenching (percent quench) (1 uM CNL002): 69.08%
- YFP fluorescence quenching using ABT-126 (percent quench) (1 uM abt (ABT-126)): 3.93%
- YFP fluorescence quenching using TC-6683 (percent quench) (3 uM TC-6683): −31.2%
- YFP fluorescence quenching (percent quench) (10 uM ach (acetylcholine)): −1.97%
- YFP fluorescence quenching (percent quench) (30 uM CNL002): 73.28%
- YFP fluorescence quenching using TC-6683 (percent quench) (30 uM TC-6683): −33.12%
- YFP fluorescence quenching using AZD-0328 (percent quench) (30 uM azd0328): 68.5%
- YFP fluorescence quenching using TC-6683 (percent quench) (100 uM TC-6683): −24.67%
- YFP fluorescence quenching (percent quench) (100 uM ach (acetylcholine)): 2.79%
- YFP fluorescence quenching (percent quench) (1 mM ach (acetylcholine)): 58.81%
- YFP fluorescence quenching (percent quench) (3 mM ach (acetylcholine)): 66.9%
- YFP fluorescence quenching using Facinicline, 30 nM fac: −8.83
- YFP fluorescence quenching using Facinicline, 300 nM fac: 51.6
- YFP fluorescence quenching using Facinicline, 30 uM fac: 71.01
- YFP fluorescence quenching using TC-6987, 1 uM tc6987: 6.03
- YFP fluorescence quenching using TC-6987, 10 uM tc6987: 2.25
- YFP fluorescence quenching using TC-6987, 500 uM tc6987: −0.24
- YFP fluorescence quenching using Varenicline, 3 nM var (first column): −22.522
- YFP fluorescence quenching using Varenicline, 3 nM var (second column): −18.173
- YFP fluorescence quenching using Varenicline, 30 nM var (first column): −15.306
- YFP fluorescence quenching using Varenicline, 30 nM var (second column): −12.832
- YFP fluorescence quenching using Varenicline, 300 nM var (first column): −14.671
- YFP fluorescence quenching using Varenicline, 300 nM var (second column): −17.016
- YFP fluorescence quenching using Varenicline, 500 nM var (first column): −16.713
- YFP fluorescence quenching using Varenicline, 500 nM var (second column): −18.893
- YFP fluorescence quenching using Varenicline, 1 uM var (first column): −15.847
- YFP fluorescence quenching using Varenicline, 1 uM var (second column): −16.236
